# Data taken from the supplement of paper PMC9732359.
# ± gives the uncertainty stated by the source.
# Assay: protein stability index of a GFP-peptide fusion (yeast GPS) (PSI 1-4); higher = more stable; sorted into four equal gates, so the index is relative within each strain
# Procedure, shortened: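 Yeast carrying a pooled library were grown to mid-log phase in leucine-free medium. Each library plasmid expresses Cherry and has a tiled 17-residue yeast protein peptide fused downstream of GFP. Cells were sorted into four equal gates by GFP/Cherry ratio, and plasmids from each gate were PCR-amplified, Illumina-sequenced and assigned to strains by barcode. Summing, across gates, the read frequency times the gate number gave each peptide's protein stability index.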
Sequence,protein stability index (doa10∆),protein stability index (pdr5∆),protein stability index (san1∆),protein stability index (ubr1∆)
NWSKEDLQKLLKGIQEF [SWI3],3.27 ± 0.068,3.07 ± 0.057,3.09 ± 0.05,3.33 ± 0.055
ANICLTFLESINGINWR [SIN4],2.54 ± 0.043,2.31 ± 0.046,2.46 ± 0.058,2.36 ± 0.042
RNSWNFALIDYFYDLDV [BRN1],2.18 ± 0.057,1.87 ± 0.05,1.33 ± 0.093,2.06 ± 0.044
HPKIVKKHTKKFKRHHS [RPL32],2.74 ± 0.054,3.06 ± 0.059,2.66 ± 0.045,3.02 ± 0.037
QIQKNGPEITPEEATTI [PRP8],2.85 ± 0.26,2.98 ± 0.15,2.83 ± 0.16,3.12 ± 0.16
NCEYEDPPNEGDPFDYK [RPB3],3.16 ± 0.13,3.4 ± 0.12,3.36 ± 0.11,3.14 ± 0.06
PVPSDSTRKKGGRRGRR [RPS14B],3.22 ± 0.092,3.45 ± 0.074,3.31 ± 0.069,3.27 ± 0.071
GDTIELAIIGDENPDLL [PRE8],3.56 ± 0.22,3.11 ± 0.17,,
TSELGNDDFSEVFEFKT [BRR2],3.04 ± 0.14,3.08 ± 0.097,2.41 ± 0.083,2.7 ± 0.099
PRGVLLYGPPGTGKTML [RPT3],3.07 ± 0.089,2.57 ± 0.11,2.9 ± 0.081,2.72 ± 0.074
LPSGVLSRGDDEVTIRR [SMC3],3.44 ± 0.083,3.25 ± 0.12,3.2 ± 0.069,3.27 ± 0.068
TAIGIATKEGVVLGVEK [PUP2],3.15 ± 0.14,3.31 ± 0.11,2.79 ± 0.16,3.11 ± 0.058
WDLQLQEKESQIQLAES [SMC4],3.05 ± 0.056,3.08 ± 0.076,2.82 ± 0.082,3.07 ± 0.06
DVPSEDDPTQLVSRGGC [RPO21],3.61 ± 0.28,3.06 ± 0.15,2.97 ± 0.21,3.01 ± 0.15
NKDLSELVIRLEKDAAD [YIL149C/MLP2],3.05 ± 0.078,3.15 ± 0.084,3.2 ± 0.061,3.15 ± 0.069
LNTLLVTSADSNLKISL [SWI1],2.71 ± 0.078,2.9 ± 0.065,2.89 ± 0.054,2.52 ± 0.08
LNESRSQHKKILEELDF [SMC3],3.38 ± 0.12,3.26 ± 0.098,3.01 ± 0.069,3.06 ± 0.082
RAYRIIRAHQTELTHHL [QCR7],3.03 ± 0.11,3.34 ± 0.081,3.01 ± 0.07,2.96 ± 0.064
QPSDVKPTSHKQLQQPK [SIR4],2.98 ± 0.096,3.15 ± 0.088,2.99 ± 0.084,3.06 ± 0.076
NEAPPKTSLADWQKEDG [YMR153W/NUP53],2.74 ± 0.13,3.14 ± 0.1,2.56 ± 0.16,2.93 ± 0.15
VEVKDASLVDYVQVRQP [RPS5],2.9 ± 0.3,3.41 ± 0.17,,1.18 ± 0.067
GVEYRLRLRISRKRNEE [RPL31A],1.5 ± 0.12,1.26 ± 0.12,,1.18 ± 0.22
YHLHPTFANPNRTFTDP [TAF14],1.94 ± 0.068,2.02 ± 0.055,2.21 ± 0.1,1.7 ± 0.036
VGCKNLERLTLVFCKHI [GRR1],1.52 ± 0.062,1.91 ± 0.077,1.25 ± 0.11,1.63 ± 0.084
VKMLRDNPGYKASKEIK [SIR3],3.08 ± 0.17,3.38 ± 0.19,,3.15 ± 0.11
SDSEDSDAKEQHQSLSR [ESC2],2.81 ± 0.14,3.19 ± 0.15,3.04 ± 0.084,2.52 ± 0.083

Sequence,protein stability index (doa10∆),protein stability index (pdr5∆),protein stability index (san1∆),protein stability index (ubr1∆)
SKALYPDYYMIIKYPVA [SNF2],2.37 ± 0.039,2.31 ± 0.038,2.02 ± 0.054,2.53 ± 0.031
NSTHLLPLQPIEIDYTV [SNF12],2.34 ± 0.044,2.27 ± 0.044,2.27 ± 0.051,2.21 ± 0.036
DLKNTRMKSITSTSQKI [SNF5],3.23 ± 0.082,3.14 ± 0.074,3.17 ± 0.045,3.08 ± 0.05
LRSRSFKSTESNISDEK [YMR129W/POM152],,,2.88 ± 0.27,
SVFNAELLKLLNDEYNY [YCS4],1.76 ± 0.053,2.31 ± 0.062,1.95 ± 0.095,2.47 ± 0.04
NIPRRELKINLPLTEHK [SRB4],2.93 ± 0.094,2.66 ± 0.072,3.23 ± 0.058,3.03 ± 0.12
NLYDDVKCWSKFIEKFQ [MED1],,3.07 ± 0.11,3.27 ± 0.14,3.58 ± 0.29
QLTEFWTELCQREFKEI [NNF1],2.98 ± 0.21,3.41 ± 0.16,3.06 ± 0.07,3.09 ± 0.069
SRYILFEIIFPPTDTNV [POP5],1.54 ± 0.069,1.41 ± 0.052,1.53 ± 0.086,1.77 ± 0.047
IEILVKDNECSSFEENN [RRI2],2.86 ± 0.13,3.02 ± 0.13,2.89 ± 0.12,3.33 ± 0.12
IFINYKQTADWLAEKFQ [PRP28],1.7 ± 0.049,1.93 ± 0.06,2.37 ± 0.072,2.36 ± 0.06
NLEFNYTKPYPNFEASF [SMC2],2.76 ± 0.09,2.21 ± 0.1,2.43 ± 0.15,2.74 ± 0.13
LKNKREIYRISFQLSKI [RPS9B],3.34 ± 0.18,3.66 ± 0.16,3.54 ± 0.062,3.38 ± 0.12
QLSLDASKTNLRLTDVT [GAL11],2.85 ± 0.058,3.23 ± 0.066,3.06 ± 0.047,3.16 ± 0.047
FALIDYFYDLDVLKDGE [BRN1],2.86 ± 0.049,2.76 ± 0.057,3.04 ± 0.061,2.79 ± 0.049
LVEVEDEKIEAIKKKEK [SRB7],2.57 ± 0.16,3.09 ± 0.16,3.05 ± 0.094,3.39 ± 0.17
PKMKDEEYDDDDDNSNV [SNF2],3.4 ± 0.095,3.37 ± 0.16,3.23 ± 0.072,3.27 ± 0.15
PAFSFGISNGSESKDSD [YLR335W/NUP2],3.23 ± 0.093,3.05 ± 0.11,3.12 ± 0.063,3.08 ± 0.088
GSNYNPYFPGGSIAMAR [CYT1],2.08 ± 0.082,2.4 ± 0.13,2.59 ± 0.093,2.35 ± 0.048
TTPEINNFIVERVQSDE [SRP68],3.18 ± 0.15,3.38 ± 0.14,3.37 ± 0.097,2.88 ± 0.13
IQSQVFESLYNSNDSVF [BRR2],2.04 ± 0.053,2.31 ± 0.057,1.59 ± 0.097,2.09 ± 0.046
KTQFSWQYYYYTLTEEG [RPS10A],2.06 ± 0.065,2.33 ± 0.052,2.59 ± 0.054,2.35 ± 0.058
GIREKRAREKAEAEAEK [RPL13A],,3.5 ± 0.25,,
YGIFGEGVEYSFLHVDD [POP8],2.25 ± 0.084,2.31 ± 0.072,1.92 ± 0.12,2.71 ± 0.049
CKQFPKLSCIQLNCIDT [SRB8],1.54 ± 0.041,1.95 ± 0.039,1.52 ± 0.043,1.66 ± 0.026
DLENSPLKTELEANGRS [SSN2],3.6 ± 0.094,3.59 ± 0.093,3.17 ± 0.096,3.51 ± 0.089

Sequence,protein stability index (doa10∆),protein stability index (pdr5∆),protein stability index (san1∆),protein stability index (ubr1∆)
FQFFPKELDALQEKEQL [ISW2],2.79 ± 0.066,2.97 ± 0.074,3.04 ± 0.043,2.97 ± 0.06
EIELKKLPKVYKRSIVR [SWI1],2.11 ± 0.069,1.86 ± 0.071,2.68 ± 0.099,2.91 ± 0.074
SHNVDELLEHIETIGHL [RPN5],2.51 ± 0.084,2.24 ± 0.1,2.14 ± 0.11,1.53 ± 0.082
LGSGSLAAMAVLESHWK [PUP1],3.24 ± 0.16,3.27 ± 0.14,2.64 ± 0.2,3.69 ± 0.18
LLENFANFKTSKKYQLA [RRP6],2.09 ± 0.25,2.57 ± 0.2,2.27 ± 0.21,2.33 ± 0.17
YVMERPKNVPTSKWLNS [YDL116W/NUP84],2.61 ± 0.057,2.75 ± 0.055,2.63 ± 0.072,2.82 ± 0.043
SLAQNDCNSALDQLLVL [RPN5],2.15 ± 0.048,2.35 ± 0.053,2.15 ± 0.053,2.37 ± 0.05
VRQLYKGKKYQPKDLRA [RPL35A],3.28 ± 0.21,3.17 ± 0.12,2.59 ± 0.098,2.92 ± 0.12
PQIRQEIEQLDQYIQKQ [YGL172W/NUP49],2.7 ± 0.061,2.76 ± 0.046,2.54 ± 0.054,2.78 ± 0.049
HPFVFEEVEDQINPTRE [SNF2],3.36 ± 0.077,3.5 ± 0.13,2.94 ± 0.17,3.13 ± 0.086
PLSQDELISLRKILESS [YIL149C/MLP2],2.45 ± 0.077,2.67 ± 0.067,2.15 ± 0.076,2.32 ± 0.093
SLDIRHDFIKGLIMLNL [NUT1],2.18 ± 0.064,1.56 ± 0.068,1.31 ± 0.13,1.72 ± 0.057
LTAIPILLEPIYEVDIT [SNU114],2.24 ± 0.047,1.75 ± 0.041,1.94 ± 0.054,2.19 ± 0.038
KEKLTVQDCRYSLASVT [POP1],2.69 ± 0.039,2.62 ± 0.043,2.35 ± 0.043,2.46 ± 0.035
DSTDNENSGKEMDEKSY [LIN1],,3.26 ± 0.14,2.88 ± 0.29,3.49 ± 0.14
NVMLEKIKDNKEKIKNN [RPT5],2.78 ± 0.12,2.94 ± 0.087,2.55 ± 0.099,2.72 ± 0.094
IEMYVQEASKQYTKDEQ [RPN2],3.3 ± 0.084,3.16 ± 0.091,3.06 ± 0.057,3.31 ± 0.069
LDKHERKWMEEKADYER [YIL149C/MLP2],2.8 ± 0.094,3.35 ± 0.15,2.66 ± 0.13,3.25 ± 0.12
SIKEHSTTMDGANDLGF [MED1],2.53 ± 0.14,2.8 ± 0.073,2.15 ± 0.28,2.86 ± 0.09
PISEKGLTLSTTNLDID [RPP1],2.82 ± 0.052,2.92 ± 0.041,3.05 ± 0.034,2.9 ± 0.049
IADKTTYDKETITDLIE [SIR4],3.3 ± 0.063,3.33 ± 0.064,3.42 ± 0.051,3.27 ± 0.05
FDPSRIKDLKQREDKLK [SMC2],2.66 ± 0.087,2.88 ± 0.18,2.99 ± 0.28,2.92 ± 0.13
DMPCDVLAKRMANLSQI [SCL1],1.71 ± 0.09,1.4 ± 0.064,1.6 ± 0.17,1.61 ± 0.076
QGTNSVPNSIGNIFSNI [SNF5],2.91 ± 0.068,3.12 ± 0.095,3.15 ± 0.12,2.98 ± 0.052
SNQLISNYAASNSMDRS [SWI1],3.11 ± 0.18,3.19 ± 0.15,3.27 ± 0.12,3.09 ± 0.12
